Measured values reported in US20210238260A1.

Molecular target: antithrombin III (plasma purified human AT-III), used as the AT-III/unfractionated heparin complex (human), P01008
Assay: K0.5: AT-III/UFH titrated against FIXa, 10 s, residual cleavage of Mesyl-D-CHG-Gly-Arg-AMC
Details: remark: other sources report otherwise

B1: FIXa-R318Y/R338E/R403E/E410N, P00740 47-191; P00740 227-461 (enzyme)
chain 1: YNSGKLEEFVQGNLERECMEEKCSFEEAREVFENTERTTEFWKQYVDGDQCESNPCLNGGSCKDDINSYECWCPFGFEGKNCELDVTCNIKNGRCEQFCKNSADNKVVCSCTEGYRLAENQKSCEPAVPFPCGRVSVSQTSKLTR
chain 2: VVGGEDAKPGQFPWQVVLNGKVDAFCGGSIVNEKWIVTAAHCVETGVKITVVAGEHNIEETEHTEQKRNVIRIIPHHNYNAAINKYNHDIALLELDEPLVLNSYVTPICIADKEYTNIFLKFGSGYVSGWGRVFHKGYSALVLQYLRVPLVDRATCLESTKFTIYNNMFCAGFHEGGRDSCQGDSGGPHVTEVEGTSFLTGIISWGEECAMKGKYGIYTKVSEYVNWIKNKTKLT
With B1 as the binder, how does the IC50 read?
The IC50 was 5.88 µM.
